Results on 6 molecules are retold here after patent US20200332281 (published 2020).

B1: T_apt.3 (= T_beads_apt.1, T_beads_re_apt.7) (ssDNA)
DNA: AGCAGCACAGAGGTCAGATGGATGGTGTAGGTTGGGAGAGGCTCAGTGCCCCTATGCGTGCTACCGTGAA
B2: T_apt.6 (ssDNA)
DNA: AGCAGCACAGAGGTCAGATGGTTGGGTAGGGTTGGATAGGGGCAAGTAGACCTATGCGTGCTACCGTGAA
B3: T_apt.4 (= T_beads_re_apt.8) (ssDNA)
DNA: AGCAGCACAGAGGTCAGATGTTGGTGGGGTGGCTTTGGGTATTTACTTGGCCTATGCGTGCTACCGTGAA
B4: T_apt.5 (ssDNA)
DNA: AGCAGCACAGAGGTCAGATGGTGGATTTGGGTGGATTGGTATGAACTGACCCTATGCGTGCTACCGTGAA
B5: T_beads_re_apt.9 (ssDNA)
DNA: AGCAGCACAGAGGTCAGATGGGGGATGGTTAGGGTGGCTTAATATTGACCCCTATGCGTGCTACCGTGAA
B6: T_apt.2 (= T_beads_apt.5) (ssDNA)
DNA: AGCAGCACAGAGGTCAGATGGAGTCGGGTGGCTATTGGGTATGGACCGTGCCTATGCGTGCTACCGTGAA

One data set addresses T1, thrombin (UniProt P00734;P00734 P00734:328-363,P00734:364-622). Put plainly: SPR; HBS-EP, 150 mM NaCl, pH 7.0. Background: Surface plasmon resonance follows binding to a sensor surface in real time, without labels.
One may read the Kd as the free concentration of one partner at which half of the binding sites on the other are occupied at equilibrium, for simple one-to-one binding. Read a low Kd as a tighter complex. For B1, the dissociation constant (Kd) is 76 nM.

In the case of B2, the affinity, expressed as Kd, was 55 nM.

B3: the Kd is 81 nM.

The target of another data set is T1, thrombin. Kind of data set: SPR; no specific response.
Consider B4, for which the binding result is reported as “no binding”.

With B5, the binding result is given as “no binding”. On the same count and under the same terms, the result for B6 reads “no binding”.
